Laboratory results from patent US20220289850 (published 2022).

Biological target: T1, mouse integrin avb8 (mouse)
T1 chain 1: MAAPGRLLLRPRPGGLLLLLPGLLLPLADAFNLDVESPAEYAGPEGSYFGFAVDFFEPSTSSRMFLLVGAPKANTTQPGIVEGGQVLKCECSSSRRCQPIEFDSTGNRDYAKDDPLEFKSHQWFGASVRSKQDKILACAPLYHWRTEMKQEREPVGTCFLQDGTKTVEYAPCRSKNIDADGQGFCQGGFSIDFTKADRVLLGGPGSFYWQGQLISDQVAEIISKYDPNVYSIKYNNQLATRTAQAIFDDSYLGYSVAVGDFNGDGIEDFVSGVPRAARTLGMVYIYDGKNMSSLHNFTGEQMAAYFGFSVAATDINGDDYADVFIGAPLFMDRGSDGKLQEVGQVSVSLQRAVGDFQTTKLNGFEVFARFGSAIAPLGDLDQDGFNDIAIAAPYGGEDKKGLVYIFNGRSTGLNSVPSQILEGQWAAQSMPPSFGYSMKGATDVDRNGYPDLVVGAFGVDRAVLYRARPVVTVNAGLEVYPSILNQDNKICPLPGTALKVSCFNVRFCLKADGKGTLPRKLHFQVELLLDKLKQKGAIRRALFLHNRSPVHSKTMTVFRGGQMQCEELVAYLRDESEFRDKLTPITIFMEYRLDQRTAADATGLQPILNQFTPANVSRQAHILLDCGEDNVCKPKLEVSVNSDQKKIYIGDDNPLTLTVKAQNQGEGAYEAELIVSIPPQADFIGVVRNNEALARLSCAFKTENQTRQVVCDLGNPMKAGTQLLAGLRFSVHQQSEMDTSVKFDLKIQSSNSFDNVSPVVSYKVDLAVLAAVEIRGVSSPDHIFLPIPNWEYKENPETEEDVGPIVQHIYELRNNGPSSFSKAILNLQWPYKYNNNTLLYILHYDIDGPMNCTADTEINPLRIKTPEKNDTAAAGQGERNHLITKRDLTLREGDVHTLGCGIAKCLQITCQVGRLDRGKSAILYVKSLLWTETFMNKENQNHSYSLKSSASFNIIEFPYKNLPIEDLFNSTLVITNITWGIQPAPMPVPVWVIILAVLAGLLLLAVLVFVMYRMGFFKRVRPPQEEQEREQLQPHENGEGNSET
T1 chain 2: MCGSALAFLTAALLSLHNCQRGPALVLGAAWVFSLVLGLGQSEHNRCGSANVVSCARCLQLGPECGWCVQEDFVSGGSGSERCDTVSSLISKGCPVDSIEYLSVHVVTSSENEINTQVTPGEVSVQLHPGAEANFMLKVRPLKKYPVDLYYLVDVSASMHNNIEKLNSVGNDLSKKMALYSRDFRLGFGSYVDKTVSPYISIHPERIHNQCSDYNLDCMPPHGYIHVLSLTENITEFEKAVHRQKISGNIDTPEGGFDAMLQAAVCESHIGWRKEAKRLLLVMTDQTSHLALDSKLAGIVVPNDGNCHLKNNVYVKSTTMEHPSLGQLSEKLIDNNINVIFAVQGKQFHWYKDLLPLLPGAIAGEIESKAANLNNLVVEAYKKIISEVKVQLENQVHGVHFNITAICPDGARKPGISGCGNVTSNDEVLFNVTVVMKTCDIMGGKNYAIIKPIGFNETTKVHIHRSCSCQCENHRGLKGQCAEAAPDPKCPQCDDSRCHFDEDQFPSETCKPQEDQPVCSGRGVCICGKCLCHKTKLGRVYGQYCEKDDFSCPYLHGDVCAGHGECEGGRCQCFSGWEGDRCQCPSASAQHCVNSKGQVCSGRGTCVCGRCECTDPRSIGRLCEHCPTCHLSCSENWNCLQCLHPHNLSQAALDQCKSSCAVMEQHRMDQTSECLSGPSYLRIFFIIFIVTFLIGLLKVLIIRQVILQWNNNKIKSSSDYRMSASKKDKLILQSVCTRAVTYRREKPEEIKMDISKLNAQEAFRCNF
Assay: SPR

Kd: 0.0708 nM
B1: ADWA11 2.4 Fab (antibody, V domains shown)
VH: EVQLVESGGGLVQPGGSLRLSCAASGFNIKDYYMNWVRQAPGKGLEWVGWIDPDQGNTIYEPKFQGRFTISADTSKNSAYLQMNSLRAEDTAVYYCARRLLMDYWGQGTLVTVSS
VL: DIQMTQSPSSLSASVGDRVTITCRSTKSLSHFNGNTYLFWYQQKPGKAPKRLIYYMSSLASGVPSRFSGSGSGTDFTLTISSLQPEDFATYYCQQSLEYPFTFGGGTKVEIK
